Laboratory results taken from paper doi:10.1101/2024.09.24.614694.

Target: CLuc-TaVIH2 (Triticum aestivum (wheat))
Assay: split reporter

Substance: NLuc-TaFLA7 (natural protein)
- fold increase of luminescence (RLU) over controls: 7 to 8 fold
